# According to patent US20240424125A1:
# B1: mirvetuximab (v17716) (antibody, part only; not given: constant regions, V domains shown, not shown: another chain or arm of the molecule)
# VH: QVQLVQSGAEVVKPGASVKISCKASGYTFTGYFMNWVKQSPGQSLEWIGRIHPYDGDTFYNQKFQGKATLTVDKSSNTAHMELLSLTSEDFAVYYCTRYDGSRAMDYWGQGTTVTVSS
# VL: DIVLTQSPLSLAVSLGQPAIISCKASQSVSFAGTSLMHWYHQKPGQQPRLLIYRASNLEAGVPDRFSGSGSKTDFTLTISPVEAEDAATYYCQQSREYPYTFGGGTKLEIK
# B2: farletuzumab (v31629) (antibody, part only; not given: constant regions, V domains shown, not shown: another chain or arm of the molecule)
# VH: EVQLVESGGGVVQPGRSLRLSCSASGFTFSGYGLSWVRQAPGKGLEWVAMISSGGSYTYYADSVKGRFAISRDNAKNTLFLQMDSLRPEDTGVYFCARHGDDPAWFAYWGQGTPVTVSS
# VL: DIQLTQSPSSLSASVGDRVTITCSVSSSISSNNLHWYQQKPGKAPKPWIYGTSNLASGVPSRFSGSGSGTDYTFTISSLQPEDIATYYCQQWSSYPYMYTFGQGTKVEIK
# Experiments:
# [1] = molecular target: human FRα on cells (human) (UniProt P15328); test: flow cytometry competition on H2110 cells; competitor: Farletuzumab; second of two values
# [2] = molecular target: human FRα on cells (human) (UniProt P15328); test: flow cytometry competition on H2110 cells; competitor: Farletuzumab; first of two values
# [3] = molecular target: human FRα on cells (human) (UniProt P15328); test: flow cytometry competition on H2110 cells; competitor: v23924; first of two values
# [4] = molecular target: human FRα on cells (human) (UniProt P15328); test: flow cytometry competition on H2110 cells; competitor: Mirvetuximab (self); second of two values
# [5] = molecular target: human FRα on cells (human) (UniProt P15328); test: flow cytometry competition on H2110 cells; competitor: v23924; second of two values
# [6] = molecular target: human FRα on cells (human) (UniProt P15328); test: flow cytometry competition on H2110 cells; competitor: Mirvetuximab (self); first of two values
# [7] = molecular target: human FRα on cells (human) (UniProt P15328); test: flow cytometry competition on H2110 cells; competitor: Farletuzumab (self); second of two values
# [8] = molecular target: human FRα on cells (human) (UniProt P15328); test: flow cytometry competition on H2110 cells; competitor: Mirvetuximab; first of two values
# [9] = molecular target: human FRα on cells (human) (UniProt P15328); test: flow cytometry competition on H2110 cells; competitor: Mirvetuximab; second of two values
# [10] = molecular target: human FRα on cells (human) (UniProt P15328); test: flow cytometry competition on H2110 cells; competitor: Farletuzumab (self); first of two values
# Chain of human FRα on cells (human) (P15328 25-234 limits assumed): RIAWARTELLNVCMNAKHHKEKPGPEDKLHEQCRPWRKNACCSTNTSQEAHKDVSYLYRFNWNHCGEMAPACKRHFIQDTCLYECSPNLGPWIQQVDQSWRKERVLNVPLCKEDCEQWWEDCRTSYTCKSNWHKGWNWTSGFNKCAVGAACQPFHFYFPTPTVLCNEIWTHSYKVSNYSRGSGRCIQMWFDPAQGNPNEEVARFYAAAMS
Binder,% Competition Binding [1],% Competition Binding [2],% Competition Binding [3],% Competition Binding [4],% Competition Binding [5],% Competition Binding [6],% Competition Binding [7],% Competition Binding [8],% Competition Binding [9],% Competition Binding [10]
B1,100%,99%,13%,98%,7%,100%,–,–,–,–
B2,–,–,99%,–,72%,–,100%,91%,75%,98%
